According to patent US20260374888 (published 2026):

B1: GEN1042 (CD137 arm) (antibody, V domains shown)
VH: EVQLVESGGGLVQPGRSLRLSCTASGFSLNDYWMSWVRQAPGKGLEWVGYIDVGGSLYYAASVKGRFTISRDDSKSIAYLQMNSLKTEDTAVYYCARGGLTYGFDLWGQGTLVTVSS
VL: DIVMTQSPSSLSASVGDRVTITCQASEDISSYLAWYQQKPGKAPKRLIYGASDLASGVPSRFSASGSGTDYTFTISSLQPEDIATYYCHYYATISGLGVAFGGGTKVEIK
B2: GEN1042 (CD40 arm) (antibody, V domains shown)
VH: EVQLVQSGAEVKKPGASVKVSCKTSGYTFTEYIMHWVRQAPGQGLEWMGGIIPNNGGTSYNQKFQGRVTMTVDKSTSTGYMELSSLRSEDTAVYYCTRREVYGRNYYALDYWGQGTLVTVSS
VL: DIQMTQSPSSLSASVGDRVTITCSASQGINNYLNWYQQKPGKAVKLLIYYTSSLHSGVPSRFSGSGSGTDYTFTISSLQPEDIATYYCQQYSNLPYTFGGGTKVEIK

Columns and labels:
mouse 4-1BB = molecular target: T1, mouse 4-1BB (mouse, UniProt P20334); assay: other, cells transiently overexpressing target
T1 chain: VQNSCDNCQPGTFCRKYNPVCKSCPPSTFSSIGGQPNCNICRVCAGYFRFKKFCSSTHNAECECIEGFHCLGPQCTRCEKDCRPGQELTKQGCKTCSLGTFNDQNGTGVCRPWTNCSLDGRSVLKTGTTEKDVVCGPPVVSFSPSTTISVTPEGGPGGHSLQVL

mouse CD40 = molecular target: T2, mouse CD40 (mouse, UniProt P27512); assay: other, cells transiently overexpressing target
T2 chain: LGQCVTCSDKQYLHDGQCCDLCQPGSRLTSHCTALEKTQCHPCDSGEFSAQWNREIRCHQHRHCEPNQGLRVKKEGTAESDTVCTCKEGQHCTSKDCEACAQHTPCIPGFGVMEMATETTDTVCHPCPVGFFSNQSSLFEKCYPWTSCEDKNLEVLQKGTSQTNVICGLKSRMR

| Binder | binding result (mouse 4-1BB) | binding result (mouse CD40) |
| --- | --- | --- |
| B1 | no binding |  |
| B2 |  | no binding |
